Experiments:
HLA-A*01:01 = test: IEDB peptide-MHC binding, purified MHC/direct/fluorescence; filed as Kd, often an IC50 or EC50 that approximates it; ≥ and ≤ were set here for values at or beyond the usual limits of such assays
HLA-A*02:01 = test: as above
HLA-A*03:01 = test: as above
HLA-A*11:01 = test: as above
HLA-A*26:01 = test: as above
HLA-A*31:01 = test: as above
HLA-A*69:01 = test: as above; conditions: source organism: Vibrio vulnificus
HLA-B*07:02 = test: as above
HLA-B*08:01 = test: as above; conditions: source organism: Haemophilus influenzae
HLA-B*15:01 = test: as above
HLA-B*27:05 = test: as above
HLA-B*35:01 = test: as above; conditions: source organism: Vibrio vulnificus
HLA-B*44:02 = test: as above; conditions: source organism: Haemophilus influenzae
HLA-B*58:01 [1] = test: as above
HLA-C*12:03 = test: as above; conditions: source organism: Yersinia pestis Nepal516
HLA-A*68:02 = test: as above; conditions: source organism: Giardia intestinalis
HLA-B*08:03 = test: as above; conditions: source organism: Giardia lamblia ATCC 50803
HLA-B*15:17 = test: as above
HLA-B*18:01 = test: as above
HLA-B*40:01 = test: as above; conditions: source organism: Giardia intestinalis
HLA-B*46:01 = test: as above
HLA-B*48:01 = test: as above; conditions: source organism: Giardia intestinalis
HLA-B*57:01 [2] = test: as above
HLA-B*57:01 [3] = test: IEDB peptide-MHC binding, purified MHC/competitive/radioactivity; filed as Kd, often an IC50 or EC50 that approximates it; ≥ and ≤ were set here for values at or beyond the usual limits of such assays
HLA-B*58:01 [4] = test: as above
HLA-A*24:03 = test: IEDB peptide-MHC binding, purified MHC/direct/fluorescence; filed as Kd, often an IC50 or EC50 that approximates it; ≥ and ≤ were set here for values at or beyond the usual limits of such assays; conditions: source organism: Giardia lamblia ATCC 50803
HLA-A*29:02 = test: as above; conditions: source organism: Giardia lamblia ATCC 50803
HLA-B*27:03 = test: as above; conditions: source organism: Giardia lamblia ATCC 50803
HLA-B*39:01 = test: as above; conditions: source organism: Giardia lamblia ATCC 50803
HLA-B*51:01 = test: as above; conditions: source organism: Giardia lamblia ATCC 50803
[5] = source organism: Vibrio vulnificus
[6] = source organism: Haemophilus influenzae
[7] = source organism: Giardia intestinalis
[8] = source organism: Dengue virus 3 Martinique/1243/1999
[9] = source organism: Giardia lamblia ATCC 50803
[10] = source organism: Dengue virus 4 Philippines/H241/1956

Sequence: IMDEPTSSL
- Kd (HLA-A*01:01; [5]): 14.3 µM
- Kd (HLA-A*02:01; [5]): 0.0267 µM
- Kd (HLA-A*03:01; [6]): ≥ 20 µM
- Kd (HLA-A*11:01; [6]): ≥ 20 µM
- Kd (HLA-A*26:01; [6]): ≥ 20 µM
- Kd (HLA-A*31:01; [6]): ≥ 20 µM
- Kd (HLA-A*69:01): 0.0649 µM
- Kd (HLA-B*07:02; [5]): ≥ 5 µM
- Kd (HLA-B*08:01): ≥ 20 µM
- Kd (HLA-B*15:01; [5]): 0.173 µM
- Kd (HLA-B*27:05; [6]): ≥ 20 µM
- Kd (HLA-B*35:01): 2.07 µM
- Kd (HLA-B*44:02): ≥ 20 µM
- Kd (HLA-B*58:01 [1]; [6]): ≥ 20 µM
- Kd (HLA-C*12:03): ≥ 20 µM

Sequence: INTLESMMK
- Kd (HLA-A*01:01; [7]): ≥ 20 µM
- Kd (HLA-A*02:01; [7]): ≥ 20 µM
- Kd (HLA-A*03:01; [7]): ≥ 20 µM
- Kd (HLA-A*11:01; [7]): 12 µM
- Kd (HLA-A*31:01; [7]): ≥ 20 µM
- Kd (HLA-A*68:02): ≥ 20 µM
- Kd (HLA-B*07:02; [7]): ≥ 20 µM
- Kd (HLA-B*08:03): ≥ 20 µM
- Kd (HLA-B*15:01; [7]): ≥ 20 µM
- Kd (HLA-B*15:17; [7]): ≥ 20 µM
- Kd (HLA-B*18:01; [7]): ≥ 20 µM
- Kd (HLA-B*27:05; [7]): ≥ 20 µM
- Kd (HLA-B*40:01): ≥ 20 µM
- Kd (HLA-B*46:01; [7]): ≥ 20 µM
- Kd (HLA-B*48:01): ≥ 20 µM
- Kd (HLA-B*57:01 [2]; [7]): ≥ 20 µM
- Kd (HLA-B*58:01 [1]; [7]): ≥ 20 µM

Sequence: KAWMVHRQW
- Kd (HLA-B*57:01 [3]; [8]): 0.00127 µM
- Kd (HLA-B*58:01 [4]; [8]): 0.00108 µM

Sequence: KTRANDWDF
- Kd (HLA-B*57:01 [3]; source organism: Dengue virus 2 Jamaica/1409/1983): 0.0221 µM

Sequence: LLIQGLKTV
- Kd (HLA-A*02:01; [9]): 0.002 µM
- Kd (HLA-A*03:01; [9]): ≥ 20 µM
- Kd (HLA-A*24:03): ≥ 20 µM
- Kd (HLA-A*26:01; [9]): ≥ 20 µM
- Kd (HLA-A*29:02): ≥ 20 µM
- Kd (HLA-B*15:17; [9]): ≥ 20 µM
- Kd (HLA-B*18:01; [9]): ≥ 20 µM
- Kd (HLA-B*27:03): ≥ 20 µM
- Kd (HLA-B*39:01): ≥ 20 µM
- Kd (HLA-B*46:01; [9]): ≥ 20 µM
- Kd (HLA-B*51:01): ≥ 20 µM
- Kd (HLA-B*57:01 [2]; [9]): ≥ 20 µM

Sequence: LSSRATWAKN
- Kd (HLA-B*57:01 [3]; [10]): 1.88 µM
- Kd (HLA-B*58:01 [4]; [10]): 0.156 µM
